The results in this text go back to the supplement of paper PMC10567573.

The series can be described thus: protein stability index of a GFP-peptide fusion (GPS, HEK-293T) (PSI 1-6); higher = more stable.
[1] abbreviates: treatment: DMSO, c terminus: a fixed tail appended.
Where [2] appears, read: treatment: MLN4924 1 uM, 8 h, c terminus: a fixed tail appended.

± gives the standard deviation.
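Also: 24-mer peptide tiles fused after GFP, lentivirally expressed, FACS-sorted into six equal bins by GFP/DsRed ratio, decoded by Illumina sequencing, PSI is the read-weighted mean bin number.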

For LYIQSHYQLELQCCIDWTHVTDPL [SMG5], the protein stability index came to 3.31 ± 0.46 under setting [1] and 3.06 ± 0.42 under setting [2].

Regarding LYYFRLAARSPQGLGASTAEISAR [PTPRD], the protein stability index was 2.34 ± 0.42 under setting [1] and 2.33 ± 0.39 under setting [2].

Turning to MAEPSAATQSHSISSSSFGAEPSA [RTN3], the protein stability index was determined as 5.06 ± 0.096 under setting [1] and 5.17 ± 0.13 under setting [2].

Consider MAGLQRLASHLPVGVMLPHNTTEA [ZC2HC1C], for which the protein stability index amounted to 3.5 ± 0.13 under setting [1] and 3.36 ± 0.27 under setting [2].

As for MAHGYGEESEEERGLEPGKGRHHR [CHGB], the protein stability index reads like this: under setting [1], 5.22 ± 0.27; under setting [2], 5.34 ± 0.11.

Turning to MDALQLANSAFAVDLFKQLCEKEP [SERPINB5], the protein stability index reads like this: under setting [1], 3.5 ± 0.36; under setting [2], 3.53 ± 0.16.

With MDVPGPVSRRAAAAAATVLLRTAR [SLC19A2], the protein stability index by setting is: under setting [1], 3.29 ± 0.23; under setting [2], 3.42 ± 0.089.

Regarding MECQPESSISHRFHKDCASRVNNA [EHMT1], the protein stability index is 4.28 ± 0.38 under setting [1] and 4.15 ± 0.39 under setting [2].

As for MERVNETVVREVIFLGFSSLARLQ [OR10K2], the protein stability index runs as follows: under setting [1], 2.64 ± 0.65; under setting [2], 2.4 ± 0.5.

Take MFPLHLAALNAHSDCCRKLLSSGF [ANKRD44]: the protein stability index reads like this: under setting [1], 2.57 ± 0.4; under setting [2], 2.15 ± 0.31.

In turn, MGHIKPDLIDVDLIRGSTFAKAKP [PHTF1] returned a protein stability index under setting [1] of 3.56 ± 0.24 and a protein stability index under setting [2] of 3.67 ± 0.35.

Consider MHKHNETSQKIAARAFAQRYLADL [RSPH3], for which the protein stability index is 2.63 ± 0.094 under setting [1] and 2.84 ± 0.22 under setting [2].

Consider MIVDLLSEKKTISFQGCMAQLFMD [OR4A15], for which the protein stability index reads like this: under setting [1], 2.74 ± 0.52; under setting [2], 2.42 ± 0.46.

In the case of MKMEEAVGKVEELIESEAPPKASE [C18orf25], the protein stability index is, setting by setting: under setting [1], 5.59 ± 0.15; under setting [2], 5.48 ± 0.57.

Turning to MKRSKELITKNHSQEETSILRCWK [RNF180], the protein stability index runs as follows: under setting [1], 3.11 ± 0.24; under setting [2], 3.19 ± 0.058.

MLGKYNTPVSYRMAKTLVFSKVKT [ACSBG2]: the protein stability index worked out at 2.46 ± 0.31 under setting [1] and 2.35 ± 0.23 under setting [2].

For the sequence MLLQHQICKEVQAEQEPTRKLFEV [SPAG8], the protein stability index worked out at 2.79 ± 0.26 under setting [1] and 2.78 ± 0.23 under setting [2].

On to MLPGVLAGVSAEESWAGPQPLETL [SCNN1D], for which the protein stability index under setting [1] was 3.38 ± 0.34 and the protein stability index under setting [2] amounted to 3.53 ± 0.37.

Turning to MMHGGSYSLTTSSTHKRSSLRKVK [RAB40B], the protein stability index is, setting by setting: under setting [1], 4.15 ± 0.25; under setting [2], 4.35 ± 0.15.

As to MPPATGGGLAESELRPRRGRCGPQ [POMT2], the protein stability index runs as follows: under setting [1], 4.59 ± 0.17; under setting [2], 4.61 ± 0.18.

As to MQNGAGASRTSTIFLNGNRERPLN [TNXB], the protein stability index reads like this: under setting [1], 3.7 ± 0.49; under setting [2], 4.06 ± 0.2.

For MSQALKATFSGFKKEQRRLGIPKN [ETS2], the protein stability index came out at 2.98 ± 0.29 under setting [1] and 3.08 ± 0.3 under setting [2].

As to MSSVQQQPPPPRRVTNVGSLLLTP [WASL], the protein stability index is 3.7 ± 0.28 under setting [1] and 3.75 ± 0.3 under setting [2].

Turning to MTEAALALSEQKAQDLGELLATAE [LRRC45], the protein stability index is, setting by setting: under setting [1], 5.16 ± 0.13; under setting [2], 5.08 ± 0.13.

As for MTTHPLTNNNIKQRLIKKVQEAVL [GOLPH3], the protein stability index by setting is: under setting [1], 2.79 ± 0.65; under setting [2], 2.65 ± 0.59.

With MTVEEIYKDRQKFSEQVFKVASSD [FLOT1], the protein stability index runs as follows: under setting [1], 3.83 ± 0.21; under setting [2], 3.61 ± 0.31.

Consider MYEMLIGYPPFCSETPQETYRKVM [STK38L], for which the protein stability index under setting [1] amounted to 2.2 ± 0.33 and the protein stability index under setting [2] came out at 2.1 ± 0.3.

For NAAYFVGKWMKKFPESETKECPFR [SERPINB5], the protein stability index came out at 2.77 ± 0.29 under setting [1] and 2.98 ± 0.47 under setting [2].

NEIESRHRELLRLESRIRDVHELF [STX11]: the protein stability index by setting is: under setting [1], 3.54 ± 0.21; under setting [2], 3.65 ± 0.22.

Regarding NFFNQVLMLGKTSISDLSEHVFDL [PDS5B], the protein stability index worked out at 2.56 ± 0.54 under setting [1] and 2.63 ± 0.32 under setting [2].

Turning to NFSQPVAGRPSLLRHDEVRTYFHE [NLN], the protein stability index reads like this: under setting [1], 3.36 ± 0.61; under setting [2], 3.33 ± 0.31.

With NGISPIIIDNTNLHAWEMKPYAVM [N4BP2L1], the protein stability index reads like this: under setting [1], 2.46 ± 0.37; under setting [2], 2.01 ± 0.25.

With NGTGDSNDFWRIEVVNRKFGNRIK [POMT2], the protein stability index reads like this: under setting [1], 3.25 ± 0.26; under setting [2], 3.46 ± 0.41.

Consider NHEEDAGVRCNTPAMGLQKKLRLN [LOXL2], for which the protein stability index under setting [1] worked out at 4.64 ± 0.12 and the protein stability index under setting [2] came to 4.5 ± 0.36.

With NISDADVHNAMDNYECNLYTFLYL [FEM1B], the protein stability index is, setting by setting: under setting [1], 2.25 ± 0.66; under setting [2], 2.42 ± 0.45.

For NKHLFYAEDFSTMDEISEKLKKGI [MATN2], the protein stability index runs as follows: under setting [1], 3.79 ± 0.36; under setting [2], 3.76 ± 0.39.

NKTQQVIHIIDFGLAKEYIDPETK [CSNK1G3]: the protein stability index is, setting by setting: under setting [1], 2.48 ± 0.52; under setting [2], 2.47 ± 0.41.

Regarding NLITTVTPEKKAEEERDEEEDKRR [EPB41L3], the protein stability index runs as follows: under setting [1], 5.61 ± 0.35; under setting [2], 5.56 ± 0.2.

Turning to NLSLVCLPRSEDDDCDDDDDDAQI [DRICH1], the protein stability index worked out at 5.42 ± 0.28 under setting [1] and 5.5 ± 0.26 under setting [2].

With NNFREYNLHRVAAHELGHSLGLSH [MMP1], the protein stability index runs as follows: under setting [1], 2.85 ± 0.22; under setting [2], 3.01 ± 0.13.

Take NNQITCRNGQWSEPPKCLDPCVIS [CFHR2]: the protein stability index reads like this: under setting [1], 3.34 ± 0.2; under setting [2], 3.32 ± 0.25.

NQHCLDTAFNFFKMAVSRHLTRGR [BRF1]: the protein stability index under setting [1] was found to be 2.19 ± 0.12 and the protein stability index under setting [2] worked out at 2.25 ± 0.22.

NQHDTEMKYYIVHLKRHFMFRNHL [DYRK1B] returned a protein stability index under setting [1] of 2.45 ± 0.23 and a protein stability index under setting [2] of 2.3 ± 0.15.

With NSEVYLPNINKISMQAVLDYLYTK [RHOBTB1], the protein stability index by setting is: under setting [1], 2.17 ± 0.29; under setting [2], 2.35 ± 0.16.

Regarding NSHFSLNVKTLKDGKPFPELVLEQ [PCDHGC5], the protein stability index by setting is: under setting [1], 3.42 ± 0.18; under setting [2], 3.76 ± 0.27.

NSLAALDLSGIQTSDAAFLTQWKD [ZER1]: the protein stability index was 4.25 ± 0.2 under setting [1] and 4.29 ± 0.23 under setting [2].

Consider NSRFQMLFTSFQEPPCEGNTFFCH [NETO1], for which the protein stability index under setting [1] was 2.23 ± 0.45 and the protein stability index under setting [2] was determined as 2.23 ± 0.11.

For NSSGDFSQAHSTLKLANHQRPVSR [TRAF3IP2], the protein stability index came out at 4.43 ± 0.32 under setting [1] and 4.63 ± 0.38 under setting [2].

In the case of NTEEQLEIALAPYQHLEEDMKSLK [MTUS2], the protein stability index by setting is: under setting [1], 4.78 ± 0.17; under setting [2], 4.8 ± 0.28.

Turning to NTRVRELAQAAGFAPQTGARPSET [DNAAF3], the protein stability index runs as follows: under setting [1], 4.71 ± 0.11; under setting [2], 4.79 ± 0.25.

Turning to NVDDPTGAHSNAPITAHAEVEVVE [CSNK1G1], the protein stability index by setting is: under setting [1], 5.35 ± 0.61; under setting [2], 5.39 ± 0.47.

Take PAAAPEGDWARLLEQMGALAVRGS [ZBED3]: the protein stability index is 3.62 ± 0.3 under setting [1] and 3.59 ± 0.37 under setting [2].

Take PAEGEGRLGRCMRRLRDMVERPHS [KCNG1]: the protein stability index was found to be 4.17 ± 0.14 under setting [1] and 4.11 ± 0.35 under setting [2].

On to PAGFRVSTLGTLQPPPAPPKKIMP [PPFIA4], for which the protein stability index reads like this: under setting [1], 4.14 ± 0.42; under setting [2], 4.07 ± 0.43.

In turn, PAIVEAGGMQALGLHLTDPSQRLV [CTNNB1] came in with a protein stability index under setting [1] of 3.79 ± 0.23 and a protein stability index under setting [2] of 3.83 ± 0.15.

On to PAPLCGGPSAEAYLLHPAAFHGAP [TBX6], for which the protein stability index turned out to be 2.82 ± 0.34 under setting [1] and 2.95 ± 0.27 under setting [2].

For PARAPPEPPHNLFCAPGSWEWNEL [SERTAD3], the protein stability index under setting [1] was 3.36 ± 0.3 and the protein stability index under setting [2] was found to be 3.32 ± 0.32.

Take PARTVLVGSLSWLRKQLQPTHCKY: the protein stability index is 2.38 ± 0.43 under setting [1] and 2.19 ± 0.098 under setting [2].

Take PASQAASSSSASADLLAGFGGSFM [SNAP91]: the protein stability index by setting is: under setting [1], 3.89 ± 0.24; under setting [2], 3.73 ± 0.12.

For the sequence PCASLLAFASTCLLSRFSVGIFHL [TMEM175], the protein stability index is, setting by setting: under setting [1], 3.43 ± 0.076; under setting [2], 3 ± 0.3.

For PDARPHRRPHELLPVGGRLPGPTR [HAGHL], the protein stability index was determined as 4.6 ± 0.14 under setting [1] and 4.57 ± 0.3 under setting [2].

PDVTQLTPPSHDLTDNIFPRLVC [ANKRD17]: the protein stability index runs as follows: (treatment: DMSO, c terminus: native) 2.45 ± 0.28; (treatment: MLN4924 1 uM, 8 h, c terminus: native) 2.4 ± 0.25.

Consider PEEKIWEELSVLEVFEGREDSILG [MAGEA3], for which the protein stability index under setting [1] is 4.6 ± 0.44 and the protein stability index under setting [2] amounted to 4.67 ± 0.11.

Take PEHRAFGSPFGLEEPQWVPDKECR [ZFYVE21]: the protein stability index came out at 4.57 ± 0.15 under setting [1] and 4.62 ± 0.28 under setting [2].

In the case of PELRQLVLSLLSLEPAQRPPLSHI [NEK8], the protein stability index under setting [1] amounted to 2.56 ± 0.41 and the protein stability index under setting [2] was determined as 2.47 ± 0.46.

For the sequence PEQGVPKSGEGFIDFIGQVHKTKE [PTPRD], the protein stability index under setting [1] came to 4.6 ± 0.44 and the protein stability index under setting [2] turned out to be 5.17 ± 0.5.

Turning to PFFFTGAFPFNMQELVLKVRIQNP [ANKRD40], the protein stability index stood at 2.27 ± 0.042 under setting [1] and 1.99 ± 0.61 under setting [2].

As to PFGENAEFPADISSITEAVPSESE [NFE2L1], the protein stability index is, setting by setting: under setting [1], 5.5 ± 0.28; under setting [2], 5.25 ± 0.27.

Take PFSSVTEEELNFEKGETMEVIEKP [NCK2]: the protein stability index by setting is: under setting [1], 5.38 ± 0.22; under setting [2], 5.42 ± 0.28.

PGAGSRRRGRMALCGQAAGAASLP [FBXO33]: the protein stability index runs as follows: under setting [1], 2.76 ± 0.2; under setting [2], 2.97 ± 0.17.

For the sequence PGCGSVPGSGSGPGPGSGPGSGPG [SPAG8], the protein stability index stood at 4.96 ± 0.062 under setting [1] and 4.99 ± 0.25 under setting [2].

Sequence PGGAPRVASRNLFPKDTLMNLHVY [CLPTM1] registered a protein stability index under setting [1] of 2.33 ± 0.24 and a protein stability index under setting [2] of 2.29 ± 0.058.
